Consider 47 sequences from the NTF2 design screens of Basanta et al. (2020).

This data set can be described thus: protease stability score; higher = more stable; yeast display proteolysis, trypsin and chymotrypsin.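 Further: log10 excess protease needed over predicted unfolded state with 0 meaning unfolded.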
Regarding “DEEAKKLADEWADAVNKNDEKSLKDLVDPNAKFRVGNQEYHGREQLEEFLSKWMSEWRHSLEDWRVNVQGDTVVLTAKLNVDVNGKPARVDAHVEFVVHNGRIKSQSEQFDEQRLRDNKS”, the protease stability score was found to be 0.521.
In the case of “DHDLLTKIKTILELIKTGNFEEVRKNFDPNVDVHVGDKTIHGRERWAKELDKEVRELRWDIKIKRVKDRGDRAHFDMEATFEVNGRPANFRANMVVHMHNGRVKHMNIKIPEEDLKRQKS” it was 0.823; in that of “DENVRRLVEHLIRAVQSNDPDKVVENLDPNASIHVGEKRYHGEDRAKDMYETEKNQMRVQVRLTQLHVQGNHAKLRETVLIDHNGRPVNVSLDMSLIAHNGRVHEIHETVPEENRKERKG”, -0.029; in that of “DEDSEFEAARRFFKAVQTGDEDEAMRQMDEDASARVGDKTYHGREHARKAMHNFRQEVDHIDVTTFDKSNGRLDVNAILEHNGKTKSVKINIQASNGHVKSVNIQDK”, -0.103.
“DERVKRLVEQWFRAIEHGDPDQERKYFDPNARVEIGDRELNGREEIAHDLKRRHDEMHLHLKSVTIRVEGDHAEVNVRFQQDHNGKPEQKVQHVVLHFRGDYVRKMEVRDTK” gave a protease stability score of 1.15.
In the case of “DEERQHRVAKSLVDILKDGNPRKMKELMDKDATVRVGDKNIRGRKNIATFWTDVRRRIDHVEIKHVDVRGDKIDMNINFDVNGRHVHYTINARVRNGKLTSMHLDPDNLEHLKE” it was 0.591.
In the case of “DEENVKKVQEQLERNDREKLKSNVDKNAEVRVGDKTYHGREDAKTVLEQLARQVDNMQWQSIRIKGEHIDAKMVVQINGKHIQVSIELTVHNGKISHFVIHARNEEVNETLKEAVD” it was 0.516; in that of “DEDSEATEVAKTMHKNMKEGDPDKFMDQFDKDVRVQVGDKVYHGRDNALKWVREMLKRVDHVNFQVKRVRRQGDSVVLHLEVTLNQNGKHDKTTFVIHFTKQGDKFRADHLREQ”, 1.86; in that of “DEERVERLARTAFKAAVNGDEDKLRKMLKPDVKYKYIDEEREGEDVAKFVVKLMKKIGAEVRLKRLEVRGDTVKADFDYKQGDKTVRTKAEVKYKGDKVDEARVELTDEVKKVLTRG”, 0.125.
To “DRNANKLATKVFTAYNRNNPKQLVENLDPNAELSYGDKEYHGRENMKKMVEDIKREMQLSIHIDHVDVHNGQARVEFVQENEHNGQPSRKHYVAHFDHENGRVKKLVFKESG” belongs -0.106; to “DERDMKAIVRAVKAFRRNNPEEVRENVDENVRIHVGDKEVHGRDQLKRDMEREVKTWRRSIRRISIDNQGDTVNVDIDQEKKHDGDPNREQNVVHFVAQNGKIKSVEQRHDG”, 0.748.
On to “DDDKKAHKFFSEMLTAIQTGNEDQLRHLVDKDAHINVGDDVITGRENIVETWREKRERVDDLDAKVDSYHVHNGRIEIRAKESSTKNGKSDSRDFRIQARLTNGHVKLQKKEQN”, for which the protease stability score was -0.348.
With “DERVKSQATEFVTALKRNDEKRLMELADKDVSVRYGDKVVHGRERVRETARHITEESRVEYDTVRVDVQGNQANVEMEATFDHNGKPDRAKVNIQINFHNGKIKRVRIDKKP”, the protease stability score was determined as 0.971.
“DDEDADRMVKLIRTNDPETFARQMDPNARVEVGDKKVHGREEALKLLSELYNQADHFQVKSISRHNGRVTVDAILVVNGRTMRARIEVVVHNGRVKSARVKFTNPEDQKQMRRNVQ” registered a protease stability score of -0.185.
Sequence “DEQAVNEVEKMWRAIHDGDPERINKMFDPNAKFHIGNKELHGRENFATTMVKEQREIRRRVDIIRMSAHNGRITVRYRVDAEVNGEPYSNDITVSATVHNGKATDFTVHVDEDYLRKFNS” had a protease stability score of -0.004.
To “DEDKLKSMFRQLQRVLTQGNPHDARKLFDEDAHLVVGDKRWTGREEVVKFIEELTRRYDHLEIKSFSVSNGRMVVNASAHVNGKSIDIHYIMEVDNGRVKYLRVDVRNEEELKKVLS” belongs 1.27; to “DDTMIRRLTEWWRAFEHNNSNQMKELADPNAKFSYGDKTVTGMDDIAKQLVNEAREMRVEIRHMKVEQHGEKVRVDFEYEIRDNGRPHTNRVVLEAHQHNGKIQSVQVKDDR”, 0.356; to “DEEKNQDHAKELAKAIVSNNEEDIERLMDPNATMLVGDKQVHGMEEARKLIRDLKKRADHIRVTDVTVSGNKIRVSFVMNVNGQNLQFVVDAQVHNGKITSMRIQARNDDIKRRLEQ”, 1.28.
To “DETRMRELDKVFHHNDPDKMRENLDENVRMVVGDKSFTGRHQVQDWLKIFHDQVDHFEVESLTKEGNKIDVVYRAVVNGQEFRMRVDITVHNGRIKMIKVDFTNEDETRQFLEHIK” belongs 1.55; to “DEQEVREAAEVIVTGNEEQLRDNADPNVKLQVGDERYHGREHFVRMISKFQKQVDHRSVDHFHVKGDKVRINMVMHINGQHVVLQINAQIHNGRIKSMEIKVRDEKDKRILDQVEG”, 1.76.
In the case of “DESITEFASHWKEVLEHGDFRRMADNVDEDVKVRIGDKEIHGRTRYRRRAKKQEDEISFRLQDLHVEVQGDHIVAKFQATVKINGQPNTFTVNVVMRVHNGRIKYMEQQFSEEDEDKLTQ” it was 0.534; in that of “DEEKLEELAEEILQMLQTGDPDQARRMADEDVRAEYGDKQYTGKERLVEVVRKLKDRADHARINSFEVEGENIVADFVMVVDGQERRVRMTARVENGRIKEVRVKTS”, 0.96; in that of “DREQAERLIRIMENERTGDPDKVVEMVDPNAKFKVGNTTYKGREELRKEVETRQKKARFEMSIQDYSVHGDTASIRYTLVINVNGQPHESTFNLEARFHNGKVRELHVKFDEQRMRDIQS”, 0.49.
“DEDQVRQANDNVIKAMKNGDPRKFKELFDPNARANYGDKEIHGMHTAMQRLVELLQQVDHIRIKDIKVENGHVHVDLVLEVNGRSVRFTITFRQSNGKVEELRMDPEDQKTLRR” registered a protease stability score of -0.186.
Sequence “DEQKLAEDLAKEIIKALETGNSHRLHELMDENARLRVGDKDYTGDHRIAKWMKHKRDRVDRVEATIQEIDADGDKVTIVIEIVFDHNGRRERVIVDARAEIRGDKVRMKELHWS” came in with a protease stability score of -0.101.
“DEDAHRLVEEFWRALKDGDSEQIKELADKDVHVQVGDTKVHGREELASQVQRERDQMSVDLKIDHVELNEDHVDVEAKMVVEHNGKPKTNKAKLDFRFHNGKLQMMRRQTRQ” showed a protease stability score of -0.184.
To “DQTALKVFKEYLEVVLNGDEHEAVELVDKDVRMNVGDKRWHGQEHIEREIRNQTRHSRLDYDHVRFEDDGDKAVFKRTVRFTHNGKPDSSRNVMHATADNGRIKSMKVEDDR” belongs -0.334.
To “DEEIERRVENRLKALEEGDEDKVRDNVDPNVRIHVGDKVWHGREHARDFARQQKEHARRKVDEYSVRVNNGKLSVKQRFKEDRNGQPREDHQQYSADIHNGTLKDMTVTKDG” belongs 0.608; to “DEDRARRLMEKMFKIILNGNDEEARKMGAPDVEYQYADKTFHGEEAMKYIVKVVKRVGVKVRQEKHEVHGDTATAHFQYENGDTTVETQAHVQYEGDKAKKVEVKNSDEVRKLVDQG”, 0.228; to “DEEAREILRRFFTALNTNDEDQLVELVDKDVKIQVGDKEIHGREELKEHQVESYRRSRVDFRVTDIKASGDKVTAKIVVSRESDGQPRKTTQRMEFRFENGHMKHVHEDSDG”, 0.064.
In the case of “DENHKVRELVDRFKEAYDSNDPDQYQNQFDKDATVTVGDKVFHGDEQAKQMAEDIMRNVDSFSISLKRVRVRGDKVRVSFKVVNNRNGRHKTIHVTAVFVFDNGRLRAKSWHFQ” it was 0.73; in that of “DDHAMRKFHELLKAIETGDEKKITDLADKHARFEYGDTEVHGRHKYAKEATDRRREMRIEIKDMKTRVDENHVQINNNYQVQVNGEPHTYTVQVVVRMDNGRLKQVQIRVSEEIRDRNKT”, -0.166.
With “DHTEVKKQNEQVRKALTQGDPKTMKKMFDPNVKLQVGEKSYRGHKDLQKWAEEMHKRVDHARVDSVHARGNHVTVDVVFNINGREKRLTLRVSYHNGRINEVHMTDG”, the protease stability score was 0.745.
In the case of “DEELQSQAERFLKNLQRGDETKLLQQMDPNAKMQYGDKTVHGRERLRTWVKHVKDEMRVQVDKFRQTVSGNHIRFDWDATFNINGTPDKIRIDVDIQVHNGRIKLITFRVSEEQTKRLHS” it was 0.371; in that of “DEDAIRVANEILKAIKEGDPHQIEEQFDKHARATYGDKTIEGSKNIMNFQKQMMDRASIKIDSVRLKNQGDHANLDYRAKVTHNGTPNDRRFTADVTVRNGKMRVFDVESRP”, -0.365.
In the case of “DEEEQQDHAHTLKDALTYGNEQEFRHMADENARINYGEFDYHGREQFQDVIRRIMEQADHVRVDHVQVHGEHVDIRLKVKFNGQTQRWVIIVRFHNGRIKHLSADTQ” it was 0.499; in that of “DDHRAKQAVKAWTDNNPDNLRELFDKNVRVEIGEFTLHGREDAQSMVQRLHSRADHVEYKDIKVSNGRINIDVVYMVDGHRVRATIHLTIENGRLKSMEVRFTSEEDQKKAKRAFE”, 0.09; in that of “DEDAVKSASNAAQHGDFVRMAEEMRDNPEARYGDKDVRGREEVIRVVRILMEQVDSVKVKRVRVHGEKVTADLKFRVNGREFHANAVVVMDNGRFVKLVLHFTDSDFKHELHKRLE”, 1.17.
Regarding “DEEESDRLKELFRVMRTGDHKRAENMLDPNARFKVGDKKFEGRHEWQKDIKKTKEESHADIKIKDVHFDNGRVDVTLEMVVLHNGRPKKFRVKFVATIQGEKVKEAHITESQ”, the protease stability score is -0.094.
In the case of “DEERAMKDAVDRMEKNVKNGNFDKMMNLADKDAKVVVGDDTYRGRDNNVKKNKEDKEEFDHAEVRFKEVEVENGRISIHADITLNVNGQDVTRRFNFELRNHNGTALIVRLTLK” it was 0.188.
To “DERALKMIREFEEIRSKGDERQLSEQVDKDADFHVGDKRLTGMDRVASELVQEVRDWRVSVDIKRMSISNGSLDIDAQVRFSHNGKPVTVHLDLKIIVHNGTIKQIEITNQP” belongs 0.698; to “DEKKAEEMLRRVVKLFRNGDVETVRKMGKDDVEVKYLDETRHGPDAMKKMLEKMKKLGAEVEYKEVHVEGDKATVKVEANIDGTTVRFHVTYQVKDHRVENVKVEYSEKAKKAIKHG”, 0.754.
On to “DEHIAKDLHRLAETGNWQELVEQADKDAKAKVGDKTYHGREDLQTLNRQWNEHVDHENLERVTLNPDHLVILFKMQVNGKDFAANVRIRRHNGRVEHIQVDARDDEQKKILHELLS”, for which the protease stability score turned out to be 0.657.
In turn, “DEEREEQARKLLRAEEQGDPDRAKQMMDPNARVQVGNKRVHGRSEIATQLEKRKRRARYEIKHVTIRARGNRVDVKINVQVVVNGRPHHFTYIMHLTFQGDKAKNATVRIDEDTLRQVDS” showed a protease stability score of 0.171.
In the case of “DDKQAKELVKLMHTGDWETLINNMDPNARVVIGNKTYHGRHDAQKLLELWQKRVDHQDIHDVKARGDQLQVNMVFVINGVKFELVITVKFHNGRIESVQYDVTDRDQERKLEDLMS” it was 1.67.
To “DERKEAKKWLDRLNKALHTGDSDKLKDMVDKDVRFNIGDKEIHGREQYVKHVQTRAEQIDDVQIHIHSIHVSGDEIVLTYHVVYNVNGRQESDVFNLVMVKNNGRLVVRSVTKG” belongs -0.012.
For “DESDQDRFRKYLHQLQNGDEKKLRKNMDPNVKFEVGEKRYEGREEYAKKVRQEVEEMRFSFKIHDIEVHNGRVTVEFEVTYEHNGRPDHEHVRIEMEVHNGKIRSVRQESDK”, the protease stability score was 0.043.
